{"source": "IntAct's records for PubMed 24076655", "parents": {"B1": {"name": "E3 ubiquitin-protein ligase ARIH2 (Homo sapiens), O95376 (parent)", "chain": "MSVDMNSQGSDSNEEDYDPNCEEEEEEEEDDPGDIEDYYVGVASDVEQQGADAFDPEEYQFTCLTYKESEGALNEHMTSLASVLKVSHSVAKLILVNFHWQVSEILDRYKSNSAQLLVEARVQPNPSKHVPTSHPPHHCAVCMQFVRKENLLSLACQHQFCRSCWEQHCSVLVKDGVGVGVSCMAQDCPLRTPEDFVFPLLPNEELREKYRRYLFRDYVESHYQLQLCPGADCPMVIRVQEPRARRVQCNRCNEVFCFKCRQMYHAPTDCATIRKWLTKCADDSETANYISAHTKDCPKCNICIEKNGGCNHMQCSKCKHDFCWMCLGDWKTHGSEYYECSRYKENPDIVNQSQQAQAREALKKYLFYFERWENHNKSLQLEAQTYQRIHEKIQERVMNNLGTWIDWQYLQNAAKLLAKCRYTLQYTYPYAYYMESGPRKKLFEYQQAQLEAEIENLSWKVERADSYDRGDLENQMHIAEQRRRTLLKDFHDT"}}}
{"variants_of": "B1", "conditions": "with cul5_human CUL5, Q93034"}
{"variant": "C318A", "effect of a mutation on the interaction": "increasing interaction"}
{"variants_of": "B1", "conditions": "with cul5_human CUL5, Q93034", "remark": "another data set of the same source"}
{"variant": "C300A", "effect of a mutation on the interaction": "increasing interaction"}
{"variants_of": "B1", "conditions": "with cul5_human CUL5, Q93034", "remark": "another data set of the same source"}
{"variant": "W100A", "effect of a mutation on the interaction": "decreasing interaction"}
{"variants_of": "B1", "conditions": "with ub2l3_human UBE2L3, P68036"}
{"variant": "H158A", "effect of a mutation on the interaction": "disrupting interaction"}
{"variants_of": "B1", "conditions": "with cul5_human CUL5, Q93034", "remark": "another data set of the same source"}
{"variant": "C310A", "effect of a mutation on the interaction": "increasing interaction"}
{"variants_of": "B1", "conditions": "with cul5_human CUL5, Q93034", "remark": "another data set of the same source"}
{"variant": "C310S", "effect of a mutation on the interaction": "increasing interaction"}
{"variants_of": "B1", "conditions": "with cul5_human CUL5, Q93034", "remark": "another data set of the same source"}
{"variant": "L84A;V86A;W100A", "effect of a mutation on the interaction": "decreasing interaction"}
